From US20210292396A1 (INTERNATIONAL AIDS VACCINE INITIATIVE, published 2021)
Numbering of substitutions follows the chain as printed.

Legend:
Assay in all cases: cell-based or functional assay
[1] = molecular target: HIV Env of isolate Ce1176_A3 (HIV)
[2] = molecular target: HIV Env of isolate Du156.12 (HIV)
[3] = molecular target: HIV Env of isolate HIV-001428-2.42 (HIV)
[4] = molecular target: HIV Env of isolate QH0692.42 (HIV)
[5] = molecular target: HIV Env of isolate 6535.3 (HIV)
[6] = molecular target: HIV Env of isolate 6480.v4.c25 (HIV)
[7] = molecular target: HIV Env of isolate 62357_14_D3_4589 (HIV)
[8] = molecular target: HIV Env of isolate SC422661.8 (HIV)
[9] = molecular target: HIV Env of isolate REJO4541.67 (HIV)
[10] = molecular target: HIV Env of isolate 191084_B7-19 (HIV)
[11] = molecular target: HIV Env of isolate 1012_11_TC21_3257 (HIV)
[12] = molecular target: HIV Env of isolate RHPA4259.7 (HIV)
[13] = molecular target: HIV Env of isolate 246F_C1G (HIV)
HIV Env of isolate CNE19 = HIV Env of isolate CNE19 (HIV)
[14] = molecular target: HIV Env of isolate CAAN5342.A2 (HIV)
[15] = molecular target: HIV Env of isolate 6240_08_TA5_4622 (HIV)
[16] = molecular target: HIV Env of isolate 0330.v4.c3 (HIV)
[17] = molecular target: HIV Env of isolate 3103.v3.c10 (HIV)
[18] = molecular target: HIV Env of isolate T211-9 (HIV)
[19] = molecular target: HIV Env of isolate Ce1172_H1 (HIV)
[20] = molecular target: HIV Env of isolate CAP45.2.00.G3 (HIV)
[21] = molecular target: HIV Env of isolate 7030102001E5(Rev-) (HIV)
[22] = molecular target: HIV Env of isolate Q23.17 (HIV)
[23] = molecular target: HIV Env of isolate T278-50 (HIV)
[24] = molecular target: HIV Env of isolate BJOX010000.06.2 (HIV)
[25] = molecular target: HIV Env of isolate BJOX028000.10.3 (HIV)
[26] = molecular target: HIV Env of isolate 6545.v4.c1 (HIV)
[27] = molecular target: HIV Env of isolate HIV-001428-2.42 (HIV); remark: listed apart in the source
[28] = molecular target: HIV Env of isolate 62357_14_D3_4589 (HIV); remark: listed apart in the source
[29] = molecular target: HIV Env of isolate X2088_c9 (HIV)
[30] = molecular target: HIV Env of isolate REJO4541.67 (HIV); remark: listed apart in the source
[31] = molecular target: HIV Env of isolate Q461.e2 (HIV)
[32] = molecular target: HIV Env of isolate 6952.v1.c20 (HIV)
[33] = molecular target: HIV Env of isolate 3817.v2.c59 (HIV)
[34] = molecular target: HIV Env of isolate X2131_C1_B5 (HIV)
[35] = molecular target: HIV Env of isolate T250-4 (HIV)
HIV Env of isolate CNE30 = HIV Env of isolate CNE30 (HIV)
[36] = molecular target: HIV Env of isolate R3265.c06 (HIV)
[37] = molecular target: HIV Env of isolate 6041.v3.c23 (HIV)
[38] = molecular target: HIV Env of isolate 231965.c01 (HIV)
[39] = molecular target: HIV Env of isolate WEAU_d15_410_5017 (HIV)
[40] = molecular target: HIV Env of isolate 0815.v3.c3 (HIV)
[41] = molecular target: HIV Env of isolate 928-28 (HIV)
[42] = molecular target: HIV Env of isolate 1054_07_TC4_1499 (HIV)
[43] = molecular target: HIV Env of isolate Q23.17 (HIV); remark: listed apart in the source

B1: PGT-121 (antibody, V domains shown)
VH: QMQLQESGPGLVKPSETLSLTCSVSGASISDSYWSWIRRSPGKGLEWIGYVHKSGDTNYSPSLKSRVNLSLDTSKNQVSLSLVAATAADSGKYYCARTLHGRRIYGIVAFNEWFTYFYMDVWGNGTQVTVSS
VL: SDISVAPGETARISCGEKSLGSRAVQWYQHRAGQAPSLIIYNNQDRPSGIPERFSGSPDSPFGTTATLTITSVEAGDEADYYCHIWDSRVPTKWVFGGGTTLTVLG
neutralization (Table 6 value) [1]: 0.00882 | neutralization (Table 6 value) [2]: 0.00534 | neutralization (Table 6 value) [3]: 0.0111 | neutralization (Table 6 value) [4]: 0.176 | neutralization (Table 6 value) [5]: 0.00325 | neutralization (Table 6 value) [6]: 0.000306 | neutralization (Table 6 value) [7]: 0.392 | neutralization (Table 6 value) [8]: 0.0272 | neutralization (Table 6 value) [9]: 0.286 | neutralization (Table 6 value) [10]: 0.0247 | neutralization (Table 6 value) [11]: 0.00917 | neutralization (Table 6 value) [12]: 0.00915 | neutralization (Table 6 value) [13]: 0.0215 | neutralization (Table 6 value) (HIV Env of isolate CNE19): 0.00315 | neutralization (Table 6 value) [14]: 0.00872 | neutralization (Table 6 value) [15]: 0.0427 | neutralization (Table 6 value) [16]: 0.0513 | neutralization (Table 6 value) [17]: 0.0206 | neutralization (Table 6 value) [18]: 0.891 | neutralization (Table 6 value) [19]: 0.00693 | neutralization (Table 6 value) [20]: 0.0713 | neutralization (Table 6 value) [21]: 0.00679 | neutralization (Table 6 value) [22]: 0.00412 | neutralization IC50 [23]: > 50 µg/mL | neutralization IC50 [24]: > 50 µg/mL | neutralization IC50 [25]: > 50 µg/mL | neutralization IC50 [26]: > 50 µg/mL | neutralization IC50 [27]: 0.014 µg/mL | neutralization IC50 [28]: 2.6 µg/mL | neutralization IC50 [29]: 0.003 µg/mL | neutralization IC50 [30]: 4.77 µg/mL | neutralization IC50 [31]: > 50 µg/mL | neutralization IC50 [32]: 0.056 µg/mL | neutralization IC50 [33]: 18.9 µg/mL | neutralization IC50 [34]: 0.004 µg/mL | neutralization IC50 [35]: 0.001 µg/mL | neutralization IC50 (HIV Env of isolate CNE30): > 50 µg/mL | neutralization IC50 [36]: > 50 µg/mL | neutralization IC50 [37]: > 50 µg/mL | neutralization IC50 [38]: > 50 µg/mL | neutralization IC50 [39]: 0.026 µg/mL | neutralization IC50 [40]: 0.025 µg/mL | neutralization IC50 [41]: 44.2 µg/mL | neutralization IC50 [42]: 0.064 µg/mL | neutralization IC50 [43]: 0.001 µg/mL

B2: ePGT121.15.H1.L1 (antibody, V domains shown)
VH: QMQLQESGPGLVKPGETLSLTCSVSGASISSSYWSWLRETPGKGLEWIGYTHHSGDTNYAPSLKSRVHLGLHPSKNQVSLSLTSVTAADTAVYYCARTLHGRRIYGVVAFNEWFTYFYWEVWGNGTQVTVSS
VL: SDISVAPGETVRISCGGESIGSRAVQWYQHRAGQAPKLIIYNNQDRPPGIPERFSGSPDIDFGTTATLTITNVEAGDEATYYCHIWDSRRPTNWVFGGGTTLTVL
neutralization (Table 6 value) [1]: 0.00282 | neutralization (Table 6 value) [2]: 0.00124 | neutralization (Table 6 value) [3]: 0.00153 | neutralization (Table 6 value) [4]: 0.0149 | neutralization (Table 6 value) [5]: 0.00121 | neutralization (Table 6 value) [6]: 0.000305 | neutralization (Table 6 value) [7]: 0.00982 | neutralization (Table 6 value) [8]: 0.00372 | neutralization (Table 6 value) [9]: 0.311 | neutralization (Table 6 value) [10]: 0.00279 | neutralization (Table 6 value) [11]: 0.00262 | neutralization (Table 6 value) [12]: 0.00233 | neutralization (Table 6 value) [13]: 0.00428 | neutralization (Table 6 value) (HIV Env of isolate CNE19): 0.00103 | neutralization (Table 6 value) [14]: 0.00192 | neutralization (Table 6 value) [15]: 0.0052 | neutralization (Table 6 value) [16]: 0.00621 | neutralization (Table 6 value) [17]: 0.00509 | neutralization (Table 6 value) [18]: 0.00532 | neutralization (Table 6 value) [19]: 0.00075 | neutralization (Table 6 value) [20]: 3.06 | neutralization (Table 6 value) [21]: 0.00261 | neutralization (Table 6 value) [22]: 0.00126 | neutralization IC50 [23]: 0.0124 µg/mL | neutralization IC50 [24]: > 50 µg/mL | neutralization IC50 [25]: 0.0021 µg/mL | neutralization IC50 [26]: > 50 µg/mL | neutralization IC50 [27]: 0.0001 µg/mL | neutralization IC50 [28]: 0.004 µg/mL | neutralization IC50 [29]: 0.0007 µg/mL | neutralization IC50 [30]: 3.17 µg/mL | neutralization IC50 [31]: > 50 µg/mL | neutralization IC50 [32]: 0.0009 µg/mL | neutralization IC50 [33]: 0.724 µg/mL | neutralization IC50 [34]: 0.0004 µg/mL | neutralization IC50 [35]: 0.0002 µg/mL | neutralization IC50 (HIV Env of isolate CNE30): 0.0024 µg/mL | neutralization IC50 [36]: > 50 µg/mL | neutralization IC50 [37]: 12.4 µg/mL | neutralization IC50 [38]: > 50 µg/mL | neutralization IC50 [39]: 0.0001 µg/mL | neutralization IC50 [40]: 0.0017 µg/mL | neutralization IC50 [41]: 0.0178 µg/mL | neutralization IC50 [42]: 0.0001 µg/mL | neutralization IC50 [43]: 0.0004 µg/mL

B3: ePGT121.15.H6.L1 (antibody, V domains shown)
VH: B2 VH with W113F, N124K
VL: B2 VL
neutralization (Table 6 value) [1]: 0.00302 | neutralization (Table 6 value) [2]: 0.000917 | neutralization (Table 6 value) [3]: 0.00181 | neutralization (Table 6 value) [4]: 0.0126 | neutralization (Table 6 value) [5]: 0.00121 | neutralization (Table 6 value) [6]: 0.000826 | neutralization (Table 6 value) [7]: 0.0132 | neutralization (Table 6 value) [8]: 0.00285 | neutralization (Table 6 value) [9]: 8e-06 | neutralization (Table 6 value) [10]: 0.00312 | neutralization (Table 6 value) [11]: 0.00194 | neutralization (Table 6 value) [12]: 0.00225 | neutralization (Table 6 value) [13]: 0.00278 | neutralization (Table 6 value) (HIV Env of isolate CNE19): 0.000806 | neutralization (Table 6 value) [14]: 0.00221 | neutralization (Table 6 value) [15]: 0.00465 | neutralization (Table 6 value) [16]: 0.00764 | neutralization (Table 6 value) [17]: 0.00513 | neutralization (Table 6 value) [18]: 0.00751 | neutralization (Table 6 value) [19]: 0.000952 | neutralization (Table 6 value) [20]: 1.8e-05 | neutralization (Table 6 value) [21]: 0.00241 | neutralization (Table 6 value) [22]: 0.00146
